This is an account of results in doi:10.64898/2025.12.18.695067.

The assay deals with DNAJB1 (recombinant, as used in SPR) (human) (UniProt P25685). Nature of the assay: SPR. Background: In SPR one partner is held on a chip, and binding of the other changes the refractive index at the surface.
Chain of UniProt P25685 (P25685 whole entry): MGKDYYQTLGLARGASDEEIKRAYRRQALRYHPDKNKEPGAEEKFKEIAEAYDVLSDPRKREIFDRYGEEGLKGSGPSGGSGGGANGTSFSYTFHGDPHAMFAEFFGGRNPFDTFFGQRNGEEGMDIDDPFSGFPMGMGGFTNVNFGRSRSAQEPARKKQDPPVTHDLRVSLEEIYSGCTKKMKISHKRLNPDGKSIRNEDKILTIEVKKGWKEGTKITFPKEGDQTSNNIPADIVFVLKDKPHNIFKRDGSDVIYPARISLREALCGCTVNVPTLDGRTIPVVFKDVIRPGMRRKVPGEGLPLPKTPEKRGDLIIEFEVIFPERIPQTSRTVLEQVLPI

For the substance “K27-linked diubiquitin (chemically synthesized; tag not told for the experiment) (from UniProt P0CG48 1-76; P0CG48 1-76)”, the Kd was determined as 1830 nM.

“K27-linked tetraubiquitin (synthetic) (from UniProt P0CG48 1-76)”: the Kd was determined as 3420 nM.

As usually defined, the Kd is the free concentration of one partner at which half of the binding sites on the other are occupied at equilibrium, for simple one-to-one binding.
